The target of this assay is UBE2A (UniProt P49459 1-152). Kind of assay: ITC.

Where “and” joins values, the source holds several entries; their conditions need not be identical. Identical values can stand only once.

B1: UBR4_(4730-5183) (domain or fragment)
chain: AIQHPGTQVLIGTDSIPNLHKLEQVSSDEGIGTLAENLLEALREHPDVNKKIDAARRETRAEKKRMAMAMRQKALGTLGMTTNEKGQVVTKTALLKQMEELIEEPGLTCCICREGYKFQPTKVLGIYTFTKRVALEEMENKPRKQQGYSTVSHFNIVHYDCHLAAVRLARGREEWESAALQNANTKCNGLLPVWGPHVPESAFATCLARHNTYLQECTGQREPTYQLNIHDIKLLFLRFAMEQSFSADTGGGGRESNIHLIPYIIHTVLYVLNTTRATSREEKNLQGFLEQPKEKWVESAFEVDGPYYFTVLALHILPPEQWRATRVEILRRLLVTSQARAVAPGGATRLTDKAVKDYSAYRSSLLFWALVDLIYNMFKKVPTSNTEGGWSCSLAEYIRHNDMPIYEAADKALKTFQEEFMPVETFSEFLDVAGLLSEITDPESFLKDLLNSVP
As a reminder, the Kd is the concentration at which binding is half-saturated. For B1, the Kd is 2800 nM and 2580 nM.

These data come from doi:10.1101/2023.05.08.539884 (bioRxiv, 2023).
